Measurements taken from ChEMBL document CHEMBL1146070, “Investigating the role of stereochemistry in the activity of anticancer acylfulvenes: synthesis, reductase-mediated bioactivation, and cellular toxicity” (J Med Chem, 2006).

How the values were obtained:
[1] = substrate: CC1=C(CO)C2=C(C)C3(CC3)[C@@](C)(O)C(=O)C2=C1; experiment: (§1) Affinity towards rat NADP-dependent AOR, leukotriene B4 12-hydroxydehydrogenase
[2] = substrate: CC1=C(CO)C2=C(C)C3(CC3)[C@](C)(O)C(=O)C2=C1; experiment: as §1
[3] = substrate: CC1=CC2=C(C)C3(CC3)[C@@](C)(O)C(=O)C2=C1; experiment: as §1
[4] = substrate: CC1=CC2=C(C)C3(CC3)[C@](C)(O)C(=O)C2=C1; experiment: as §1

B1: Prostaglandin reductase 1 (Rattus norvegicus), P97584 (protein)
chain: MVQAKTWTLKKHFEGFPTDSNFELRTTELPPLNNGEVLLEALFLSVDPYMRVAAKKLKEGDSMMGEQVARVVESKNSAFPTGTIVVALLGWTSHSISDGNGLRKLPAEWPDKLPLSLALGTVGMPGLTAYFGLLDICGLKGGETVLVNAAAGAVGSVVGQIAKLKGCKVVGTAGSDEKVAYLKKLGFDVAFNYKTVKSLEEALRTASPDGYDCYFDNVGGEFSNTVILQMKTFGRIAICGAISQYNRTGPCPPGPSPEVIIYQQLRMEGFIVTRWQGEVRQKALTDLMNWVSEGKIRYHEYITEGFEKMPAAFMGMLKGDNLGKTIVKA
- Km [1]: 213 µM
- Km [2]: 243 µM
- Km [3]: 538 µM
- Km [4]: 465 µM
